T1: OsWRKY45-DBD (OsWRKY45-1) (Oryza sativa Japonica subspecies, UniProt Q5W6D6 104-182)
T1 sequence: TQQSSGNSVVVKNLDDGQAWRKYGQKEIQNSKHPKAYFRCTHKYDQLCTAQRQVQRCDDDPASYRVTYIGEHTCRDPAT

T2: OsWRKY45-DBD L150M (= OsWRKY45-2-DBD) (Oryza sativa Japonica subspecies, UniProt Q5W6D6 104-182, L150M)
T2 sequence: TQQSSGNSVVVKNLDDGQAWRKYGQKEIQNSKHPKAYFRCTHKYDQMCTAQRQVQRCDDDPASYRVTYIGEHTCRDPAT

T3: OsWRKY45-DBD R142A (Oryza sativa Japonica subspecies, UniProt Q5W6D6 104-182, R142A)
T3 sequence: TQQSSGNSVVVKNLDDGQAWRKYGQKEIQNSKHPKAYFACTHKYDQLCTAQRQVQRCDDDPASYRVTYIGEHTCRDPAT


Tests used:
[1] = biological target: T1, OsWRKY45-DBD (OsWRKY45-1); test: EMSA
AUC = biological target: the molecule itself; test: AUC
[2] = biological target: T2, OsWRKY45-DBD L150M (= OsWRKY45-2-DBD); test: BLI
[3] = biological target: T1, OsWRKY45-DBD (OsWRKY45-1); test: BLI
OsWRKY45-DBD R142A = biological target: T3, OsWRKY45-DBD R142A; test: BLI

Binder | binding result [1] | other results
MUT9C (dsDNA) DNA 1: GATATTTGCCCGGA DNA 2: TCCGGGCAAATATC | no binding | 
OsWRKY45–DBD (DNA binding domain of OsWRKY45, residues 104–182) (domain or fragment) TQQSSGNSVVVKNLDDGQAWRKYGQKEIQNSKHPKAYFRCTHKYDQLCTAQRQVQRCDDDPASYRVTYIGEHTCRDPAT |  | stoichiometry N (AUC): 2
MUT10A (dsDNA) DNA 1: GATATTTGAACGGA DNA 2: TCCGTTCAAATATC | no binding | 
MUT11A (dsDNA) DNA 1: GATATTTGACAGGA DNA 2: TCCTGTCAAATATC | no binding | 
MUT11T (dsDNA) DNA 1: GATATTTGACTGGA DNA 2: TCCAGTCAAATATC | binds | 
DNA-1 (W-box DNA) (dsDNA) DNA 1: GATATTTGACCGGA DNA 2: TCCGGTCAAATATC |  | Kd [2]: 7.7 µM; Kd [3]: 4.6 µM; Kd (OsWRKY45-DBD R142A): 13.8 µM
MUT7C (dsDNA) DNA 1: GATATTCGACCGGA DNA 2: TCCGGTCGAATATC | no binding | 
MUT8A (dsDNA) DNA 1: GATATTTAACCGGA DNA 2: TCCGGTTAAATATC | no binding | 
